Target: endogenous αIIbβ3 integrin receptor of activated platelets (human (endogenous in platelets)) (UniProt P08514)

- reduction of adhesion of TRAP-activated platelets to fibrinogen-coated wells (1 µM peptide, compared to N-PTB^D66E): 7%
Binder: RGDS [RGDS peptide]

From article PMC2778132
